Among the data in paper PMC7535911 are DUB activity in vitro with Ub-AMC as substrate (Kapp, percent of WT) values, retold here.

Read-outs that look alike come from different tables or passages of the source.

For experiment [1], the target named is ubiquitin-7-amino-4-methyl coumarin (Ub-AMC) (UniProt P0CG47).
Experiment [2] shares this target. This is another data set of the same source.

For TYMV PRO/DUB E759A (enzyme), in experiment [1], the DUB activity in vitro with Ub-AMC as substrate (Kapp, percent of WT) was 137 % of WT. The same measure, in the same setting: under TYMV PRO/DUB N760A (enzyme) stands 135 % of WT. On to TYMV PRO/DUB N760A/R844A (enzyme), for which, in experiment [2], the DUB activity in vitro with Ub-AMC as substrate (Kapp, percent of WT) is 344 % of WT. The same measure, in the same setting: the figure for TYMV PRO/DUB R844A (enzyme) is 320 % of WT. TYMV PRO/DUB T763A (enzyme): in experiment [1], the DUB activity in vitro with Ub-AMC as substrate (Kapp, percent of WT) was 89 % of WT.
